Test results taken from paper PMC9916836.

Biological target: T1, UvrY-His6 (Escherichia coli O157:H7 (EHEC; EDL933?)) (UniProt P66798)
T1 sequence: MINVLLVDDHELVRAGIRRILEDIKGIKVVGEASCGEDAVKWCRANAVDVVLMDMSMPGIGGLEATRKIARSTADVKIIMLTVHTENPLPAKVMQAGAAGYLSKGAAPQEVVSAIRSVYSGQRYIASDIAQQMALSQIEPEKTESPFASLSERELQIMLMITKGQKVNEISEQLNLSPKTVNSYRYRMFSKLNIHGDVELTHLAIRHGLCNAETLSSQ
Assay: EMSA

Sequence | binding
GTTATCGCAGGGAGCCACACAGCGTGTGTTGGACGCGACTCAGCTTTACCTTGGTGAGATTGGTTATTCACCACTGTTAACGGCCGAAGAAGAAGTTTATTTTGCGCGTCGCGCACTGCGTGGAGATGTCGCCTCTCGCCGCCGGATGATCGAGAGTAACTTGCGTCTGGTGGTAAAA (double strand) [rpoS coding region] | no binding
AGATTCATCTGCAGGCTCTGAAGTAAGTATACGTGTGAATATTATTGCTTGAAAAAGCGTATTGGATAATATATACAGTATATGTACTTTATGTACATTGCAACTATTTAAATAATATAATAGTTGCCTATGGGATAATTTGGTTATTTATAACCAGGTAAATGTCTAAATTAGACAAAAGGAGAAAGATCAATGGAAGCAGCAAATTTAAGTCCTTCTGGTGCAGTAATG (double strand) [PLEE2/3] | no binding
GGGTGCTACTTTACGCCTTTGCTTTAAACAAACAATCAACCGCCATCAGTATTTGCACATTTTCAGAGTTTTATATAAAAGCAATTAACTGATTTATATAGCTTATTTGACATGCATCGCAGAATTTTCTCTGCTATTTCGCATAAAGACTATCGGCAATGTCTCACAAAGCGTATGGCTTTTACTTACAACGCTCACGCCGAAAAATCCGCCTTTTATTATGGTTCAGGTATAATCGCCGCAAAGCTTTGACTGACGGAGACGACCGCTT (double strand) [PcsrC] | binds
CATTAGCCATTGGAAACTCACGTAATCATTAATTATGAATATTCCATTAAATAGTACTGTACAACAGCTTCCTTTCTACTCTATTCTTAGACGATGTAAGTTCACCATATTTTTTCTCATTGTTCAACCACCAGGATGAATAAAATTTAAAAATGTTATCCTCATATAAAATAAAACTTCTCAATGGTGCGATGCG (double strand) [PLEE4] | no binding
